Results: publication PMC12697964

Target: N-terminal region deleted seYdjB-like protein (amino acid from 35 to 162) (Salmonella enterica)
Assay: SEC-MALS; Superdex 75 10/300 GL, SEC buffer (20 mM Tris-HCl pH 8.0, 150 mM NaCl), 0.6 mL/min; three-angle light scattering and refractive index detectors; BSA as reference

N-terminal region deleted seYdjB-like protein (amino acid from 35 to 162) (domain or fragment)
stoichiometry N: 2
